Results as given in paper PMC2635704.

Target: BjVIII, myotoxic Lys49-PLA2 from Bothrops jararacussu venom (Bothrops jararacussu)
Experiment: tricine SDS-PAGE under non-reducing conditions

In the case of “BjVIII, myotoxic Lys49-PLA2 from Bothrops jararacussu venom (natural protein)”, the stoichiometry N is reported as 2.
